Assay results published in US20200223888A1 (ARCH BIOPARTNERS, published 2020).
Ends that are not written are not given here. * marks the point of attachment. Biotin = O=C1N[C@H]2[C@H](CS[C@H]2CCCCC(=O)*)N1

B2: LSALT peptide (LSALTPSPSWLKYKAL) (peptide)
peptide: LSALTPSPSWLKYKAL
modifications: also: Alexa-488 or biotin label or agarose support in some assays, site not given here
notes: Synthetic peptide from a phage display hit; The label or support differs between assays; also called Metablok; Native

Columns and labels:
[1] = target: GFE-1 peptide
[2] = target: T1, LSALT peptide (LSALTPSPSWLKYKAL)
T1 chain: LSALTPSPSWLKYKAL

[3] = target: T2, rat membrane dipeptidase (DPEP-1), expressed on transfected Cos cells (rat, UniProt P31430 17-384); test: Alexa-488 peptide on transfected Cos-7 cells, flow cytometry (FIG. 9)
T2 construct: whole, on cells; also called renal rat membrane dipeptidase (DPEP-1); rat DPEP-1
Experimental: Cells were washed and flow cytometry was performed to assess binding. Shown are single parameter histographs for each experimental condition (n=2).

[4] = target: T3, human membrane dipeptidase (DPEP-1), wild type, expressed on transfected cells (human, UniProt P16444 17-385); test: Alexa-488 peptide on transfected Cos-1 cells, immunofluorescence microscopy (FIG. 5B)
T3 construct: whole, on cells; also called human DPEP1; hDPEP1
T3 sequence (looked up): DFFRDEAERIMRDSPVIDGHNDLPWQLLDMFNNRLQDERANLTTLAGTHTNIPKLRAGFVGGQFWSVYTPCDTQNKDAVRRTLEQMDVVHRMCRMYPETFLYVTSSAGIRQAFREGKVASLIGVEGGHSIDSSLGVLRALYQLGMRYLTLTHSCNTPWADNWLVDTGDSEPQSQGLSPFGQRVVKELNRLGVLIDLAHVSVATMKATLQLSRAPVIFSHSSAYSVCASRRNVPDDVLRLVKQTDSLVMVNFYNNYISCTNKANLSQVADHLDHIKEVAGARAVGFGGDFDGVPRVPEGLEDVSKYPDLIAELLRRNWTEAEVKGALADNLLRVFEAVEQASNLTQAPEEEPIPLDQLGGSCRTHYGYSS
Experimental: Cells were blocked with FBS/NBSA/Tween in PBS for 30 minutes on ice.

[5] = target: T3, human membrane dipeptidase (DPEP-1), …; test: biotinylated peptide at 5 uM on fixed DPEP1-transfected HEK cells, Alexa 568-streptavidin, fluorescence microscopy
[6] = target: T3, human membrane dipeptidase (DPEP-1), …; test: phage (10^8 pfu) on DPEP1 transfected Cos 1 cells, anti-M13 serum, fluorescence imaging (FIG. 19B)
Experimental: In FIG. 19B, Cosl cells were transiently transfected with plasmids corresponding to human DPEP1 or DPEP2 (Lipofectamine 2000) 24 hrs prior to plating on collagen-coated (PureCol; Type I collagen from bovine tendon) coverslips. One day later cells were incubated with 10⁸ pfu test phage, which were then detected by anti-M13 rabbit serum (in house) with anti-rabbit Alexa 568 secondary. After fixing and counterstaining with DAPI, coverslips were fluorescently imaged.

[7] = target: B2; test: phage display biopanning against LSALT-agarose, three rounds, plaque sequencing (FIG. 20A)
From the text: Each plaque was amplified separately in liquid bacterial host culture. […] DNA inserts were translated to the expected protein and sorted to assess the number of repeating sequences.

T2 sequence (P31430 17-384): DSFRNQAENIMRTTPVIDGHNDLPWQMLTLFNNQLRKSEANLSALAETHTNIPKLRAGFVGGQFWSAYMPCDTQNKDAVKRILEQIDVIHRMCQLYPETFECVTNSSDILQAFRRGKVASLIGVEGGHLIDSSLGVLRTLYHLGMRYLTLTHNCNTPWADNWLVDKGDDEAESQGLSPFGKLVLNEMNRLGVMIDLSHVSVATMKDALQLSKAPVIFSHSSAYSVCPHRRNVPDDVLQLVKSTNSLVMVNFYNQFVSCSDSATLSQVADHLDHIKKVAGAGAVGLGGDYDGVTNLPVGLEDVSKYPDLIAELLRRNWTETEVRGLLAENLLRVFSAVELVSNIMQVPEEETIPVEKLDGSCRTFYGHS

B1: human membrane dipeptidase (DPEP-1), wild type, expressed on transfected cells (protein)
chain: DFFRDEAERIMRDSPVIDGHNDLPWQLLDMFNNRLQDERANLTTLAGTHTNIPKLRAGFVGGQFWSVYTPCDTQNKDAVRRTLEQMDVVHRMCRMYPETFLYVTSSAGIRQAFREGKVASLIGVEGGHSIDSSLGVLRALYQLGMRYLTLTHSCNTPWADNWLVDTGDSEPQSQGLSPFGQRVVKELNRLGVLIDLAHVSVATMKATLQLSRAPVIFSHSSAYSVCASRRNVPDDVLRLVKQTDSLVMVNFYNNYISCTNKANLSQVADHLDHIKEVAGARAVGFGGDFDGVPRVPEGLEDVSKYPDLIAELLRRNWTEAEVKGALADNLLRVFEAVEQASNLTQAPEEEPIPLDQLGGSCRTHYGYSS
B1 was tested, and the “membrane dipeptidase enzyme activity (Gly-D-Phe substrate, fluorimetric detection of D-Phe)” value [1] was “LSALT and GFE-1 do not inhibit membrane dipeptidase enzyme activity” and the “membrane dipeptidase enzyme activity (Gly-D-Phe substrate, fluorimetric detection of D-Phe)” value [2] was “LSALT and GFE-1 do not inhibit membrane dipeptidase enzyme activity”.

B2: binds [3]; binds [4].

Biotin-ASALTPSPSWLKYKAL (also called #A1; A1) [LSALT alanine walk peptide Pos 1 (ASALTPSPSWLKYKAL)]: binds [5].

Biotin-LSALAPSPSWLKYKAL (also called #A5; A5) [LSALT alanine walk peptide Pos 5 (LSALAPSPSWLKYKAL)]: binds [5].

Biotin-LSALTPSPSALKYKAL (also called #A10; A10) [LSALT alanine walk peptide Pos 10 (LSALTPSPSALKYKAL)]: binds [5].

Biotin-LSALTPSPSWLAYKAL (also called #A12; #Al2) [LSALT alanine walk peptide Pos 12 (LSALTPSPSWLAYKAL)]: binds [5].

B3: phage hit displaying KHMHWHPPALNT (Ph.D.-12 library) (peptide)
peptide: KHMHWHPPALNT
notes: The phage coat protein part is not described; also called neogenin-mimetic peptide phage hit; phage peptide tentatively identified as corresponding to Neogenin
B3: binds [6].

HIPKSPIQIPII (also called IPK peptide) [IPK phage hit HIPKSPIQIPII (Ph.D.-12 library)]: binds [7].
